Measurements published in article PMC4250932.

Test system: NC(=O)C1=CN([C@@H]2O[C@H](COP(=O)(O)OP(=O)(O)OC[C@H]3O[C@@H](n4cnc5c(N)ncnc54)[C@H](OP(=O)(O)O)[C@@H]3O)[C@@H](O)[C@H]2O)C=CC1
Assay: purified protein
Details: varied: cofactor

**Q.** Which Km does the source give for “RmlD (dTDP-6-deoxy-L-lyxo-4-hexulose reductase) (Mycobacterium tuberculosis H37Rv)” here?
**A.** 12.5 µM
